Reference: paper PMC5080433 (Nature Communications, 2016)

Experiments:
p97-A232E = p97-A232E (human, UniProt P55072 2-806, A232E); experiment: SEC; settings: both partners purified
[1] = target: T1, full-length p97 (residues 2–806), purified recombinant (human, UniProt P55072 2-806); experiment: BLI; settings: both partners purified
T1 construct: p97 (VCP), human, residues 2-806; Hexamer when alone; in complex with ASPL-C it stands in heterotetramers; also called p97 hexamers; wt p97; source: E. coli BL21 DE3 Rosetta2, purified (Ni-NTA, TEV protease, SEC)

| binding result (p97-A232E) | Kd [1] [nM] | Binder |
| --- | --- | --- |
| binds |  | ASPL-C (residues 313–553), purified recombinant (domain or fragment) VDREPVDREPVVCHPDLEERLQAWPAELPDEFFELTVDDVRRRLAQLKSERKRLEEAPLVTKAFREAQIKEKLERYPKVALRVLFPDRYVLQGFFRPSETVGDLRDFVRSHLGNPELSFYLFITPPKTVLDDHTQTLFQANLFPAALVHLGAEEPAGVYLEPGLLEHAISPSAADVLVARYMSRAAGSPSPLPAPDPAPKSEPAAEEGALVPPEPIPGTAQPVKRSLGKVPKWLKLPASKR |
|  | ~2 | C-terminally His-tagged full-length ASPL (residues 1–553) (natural protein, human, UniProt Q9BZE9 1-553, looked up, ASPL, human, residues 1-553; cDNA from the Mammalian Gene Collection; also called ASPL-His; source: E. coli BL21 DE3 Rosetta2, purified (glutathione-Sepharose, TEV cleavage, SEC); not shown: His, C-terminal, kept; GST, N-terminal, cleaved) MAAPAGGGGSAVSVLAPNGRRHTVKVTPSTVLLQVLEDTCRRQDFNPCEYDLKFQRSVLDLSLQWRFANLPNNAKLEMVPASRSREGPENMVRIALQLDDGSRLQDSFCSGQTLWELLSHFPQIRECLQHPGGATPVCVYTRDEVTGEAALRGTTLQSLGLTGGSATIRFVMKCYDPVGKTPGSLGSSASAGQAAASAPLPLESGELSRGDLSRPEDADTSGPCCEHTQEKQSTRAPAAAPFVPFSGGGQRLGGPPGPTRPLTSSSAKLPKSLSSPGGPSKPKKSKSGQDPQQEQEQERERDPQQEQERERPVDREPVDREPVVCHPDLEERLQAWPAELPDEFFELTVDDVRRRLAQLKSERKRLEEAPLVTKAFREAQIKEKLERYPKVALRVLFPDRYVLQGFFRPSETVGDLRDFVRSHLGNPELSFYLFITPPKTVLDDHTQTLFQANLFPAALVHLGAEEPAGVYLEPGLLEHAISPSAADVLVARYMSRAAGSPSPLPAPDPAPKSEPAAEEGALVPPEPIPGTAQPVKRSLGKVPKWLKLPASKR |
